Here are results for six molecules from paper PMC7454256 (Antibody Therapeutics, 2020).

To fix the notation:
B1: KZ52 (antibody, V domains shown)
VH: EVQLLESGGGLVKPGGSLRLSCAASGFTLINYRMNWVRQAPGKGLEWVSSISSSSSYIHYADSVKGRFTISRDNAENSLYLQMNSLRAEDTAVYYCVREGPRATGYSMADVFDIWGQGTMVTVSS
VL: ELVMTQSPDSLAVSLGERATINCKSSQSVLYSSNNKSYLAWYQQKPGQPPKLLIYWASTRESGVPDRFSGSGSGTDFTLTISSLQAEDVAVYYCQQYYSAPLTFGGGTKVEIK
notes: source: supplied in purified form (Integrated Biotherapeutics)
B2: mAb114 (antibody, V domains shown)
VH: EVQLVESGGGLIQPGGSLRLSCAASGFALRMYDMHWVRQTIDKRLEWVSAVGPSGDTYYADSVKGRFAVSRENAKNSLSLQMNSLTAGDTAIYYCVRSDRGVAGLFDSWGQGILVTVSS
VL: DIQMTQSPSSLSASVGDRITITCRASQAFDNYVAWYQQRPGKVPKLLISAASALHAGVPSRFSGSGSGTHFTLTISSLQPEDVATYYCQNYNSAPLTFGGGTKVEIK
notes: as for B1
B3: ADI-15878 (antibody, V domains shown)
VH: QVQLVQSGVTLVQPGGSLRVSCAASGFTFSSYAMSWVRQAPGKGLEWVSAISGLGGSTYYADSVKGRFTISRDNSKNTLYLQMNSLRAEDTAVYYCAKDHRVWAAGYHFDYWGQGALVTVSS
VL: DIVLTQSPSTLSASVGDRVTITCRASQSISSWLAWYQQKPGEAPKLLISDASSLESGVPSRFSGSGSGTEFTLTISSLQPDDFATYYCQQYYSSPIFGGGTKVEIK
notes: also called PE-87; Control PE-87; source: supplied in purified form (Integrated Biotherapeutics)
B4: ADI-15946 (antibody, V domains shown)
VH: EVQLVESGGGLVKPGGSLRLSCAASGFTFSNAWMSWVRQAPGKGLEWVGRIKSKTDGGTIDYAAPVKGRFTISRDDSKNTVYLQMTSLKTEDTAVYYCTTYTEDMRYFDWLLRGGETFDYWGQGTLVTVSS
VL: DIRLTQSPSSLSASVGDRVTITCRASHYISTYLNWYQQKPGKAPKLLIYAASNLQSGVPSRFSGSGFGTDFSLTISSLQPEDFATYHCQQSYSTPGRYTFGQGTKVEIK
notes: also called PE-64
B5: CA45 (antibody, V domains shown)
VH: QVQLQEWGEGLVKPSETLSLTCAVYGGSISGYYHWNWIRLPPGKGLEWIGNIDGNSASTNYNPSLKTRVTISKDTSKNQISLKVRSLTAADTAVYYCARDPGFTIFGVVITSWSGLDSWGQGAVVTVSS
VL: DIQMTQSPSSLSASVGDTVTITCRASQSISNNLAWYQQRPRRAPQLLIYAASNLASGVPSRFSGSGSGTDFTLTISSLQAEDFAAYYCQQHNTLPLTFGGGTKVEIK
B6: mAb100 (antibody, V domains shown)
VH: QVQLQESGPGLVKPSDTLSLTCTVSGGSLSSFYWSWIRQPPGKGLEWIGYIYYSGSPNYSPSLESRVTMSVDTTRNQISLKLDSVTAADTAVYYCVRASRSYYWGSYRPTAFDSWGQGTLVTVSS
VL: YELTQPLSVSVSPGQTAIFTCSGDNLGDKYVCWFQQRPGQSPMLLIYQDNKRPSGIPERFSGSNSGNTATLTISGTQSTDEADYYCQTWDSTVVFGGGTKLTVL

The first assay concerns the target T1, Ebola virus glycoprotein (EBOV GP), trimer of the GP1 + GP2 heterodimer lacking the transmembrane domain (Ebola virus, Mayinga strain, UniProt Q05320).
T1 construct: also called soluble Ebola virus glycoprotein; EBOV GP trimer complex of GP1 + GP2 heterodimer; source: Drosophila S2 cells; supplied by Integrated Biotherapeutics, purified
The assay can be described thus: SPR. The following applies: both partners purified.
T1 sequence (Q05320 33-637, one chain of several): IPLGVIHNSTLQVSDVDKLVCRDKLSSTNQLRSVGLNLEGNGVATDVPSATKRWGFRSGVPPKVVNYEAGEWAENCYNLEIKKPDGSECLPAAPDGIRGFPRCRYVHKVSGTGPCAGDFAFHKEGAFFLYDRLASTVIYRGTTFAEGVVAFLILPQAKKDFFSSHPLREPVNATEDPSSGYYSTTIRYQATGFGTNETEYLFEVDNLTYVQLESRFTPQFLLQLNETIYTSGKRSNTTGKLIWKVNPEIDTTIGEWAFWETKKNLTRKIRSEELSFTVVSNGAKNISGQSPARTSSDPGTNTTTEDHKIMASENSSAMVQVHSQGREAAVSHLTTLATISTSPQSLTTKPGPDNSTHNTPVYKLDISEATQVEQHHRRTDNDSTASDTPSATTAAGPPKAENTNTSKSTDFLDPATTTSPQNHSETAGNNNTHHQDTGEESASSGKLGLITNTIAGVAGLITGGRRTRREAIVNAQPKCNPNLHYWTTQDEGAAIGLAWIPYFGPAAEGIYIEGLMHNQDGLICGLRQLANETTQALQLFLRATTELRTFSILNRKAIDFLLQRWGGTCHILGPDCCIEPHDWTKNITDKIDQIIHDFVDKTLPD
For B1, the binding result is recorded as “binds”.

Regarding B2, the binding result is given as “binds”.

In the case of B3, the binding result was “binds”.

Another assay has as its target T2, Ebola virus glycoprotein (EBOV GP), trimer of the GP1 + GP2 heterodimer lacking the transmembrane domain (Ebola virus, Mayinga strain, UniProt Q05320).
T2 construct: also called soluble Ebola virus glycoprotein; EBOV GP trimer complex of GP1 + GP2 heterodimer; source: Drosophila S2 cells; supplied by Integrated Biotherapeutics, purified
The assay can be described thus: SPR. The following applies: both partners purified.
T2 sequence (Q05320 33-637, one chain of several): as above
For the molecule B4, the binding result is recorded as “binds”.

As to B5, the binding result is reported as “binds”.

B6: the binding result is “binds”.
